From the supplement of paper PMC5998384

What was measured:
HeLa Kyoto [1] = experiment: melting temperature (median over replicates), in situ; higher = more thermally stable
HeLa Kyoto [2] = experiment: solubility in G1/S (NP-40 vs SDS abundance) (log2 ratio); higher = more soluble; conditions: cell cycle stage: G1/S
HeLa Kyoto [3] = experiment: thermal stability score vs G1/S (z-score of summed log2 fold changes over temperatures); higher = more thermally stable than in G1/S
HeLa Kyoto [4] = experiment: solubility change mitosis vs G1/S (difference of NP-40 vs SDS log2 ratios) (log2 ratio difference); higher = more soluble in mitosis
[5] = cell cycle stage: early G1 (4.5 h after nocodazole release)
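Wherever melting temperature (median over replicates), in situ is given: HeLa Kyoto cells synchronized by double thymidine or nocodazole block, proteins quantified by TMT10plex mass spectrometry, three independent biological replicates.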
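Wherever solubility change mitosis vs G1/S (difference of NP-40 vs SDS log2 ratios) is given: synchronized HeLa Kyoto cells (double thymidine block for G1/S, nocodazole release for mitosis), protein amounts in NP-40 versus SDS lysates quantified by mass spectrometry, three biological replicates.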
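Wherever solubility in G1/S (NP-40 vs SDS abundance) is given: HeLa Kyoto cells arrested at G1/S by double thymidine block, proteins quantified by TMT10plex mass spectrometry in mild NP-40 versus SDS extracts, three biological replicates.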
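Wherever thermal stability score vs G1/S (z-score of summed log2 fold changes over temperatures) is given: synchronized HeLa Kyoto cells, proteins quantified by TMT10plex mass spectrometry, three biological replicates, mitosis taken 0.5 h after nocodazole release, G1/S directly after double thymidine block.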

Sequence	melting temperature (HeLa Kyoto [1]; cell cycle stage: G1/S)	melting temperature (HeLa Kyoto [1]; cell cycle stage: mitosis)	solubility in G1/S (log2) (HeLa Kyoto [2])	thermal stability score (HeLa Kyoto [3]; [5])	thermal stability score (HeLa Kyoto [3]; cell cycle stage: mitosis)	solubility change mitosis (log2) (HeLa Kyoto [4])
MAAGPISERNQDATVYVGGLDEKVSEPLLWELFLQAGPVVNTHMPKDRVTGQHQGYGFVEFLSEEDADYAIKIMNMIKLYGKPIRVNKASAHNKNLDVGANIFIGNLDPEIDEKLLYDTFSAFGVILQTPKIMRDPDTGNSKGYAFINFASFDASDAAIEAMNGQYLCNRPITVSYAFKKDSKGERHGSAAERLLAAQNPLSQADRPHQLFADAPPPPSAPNPVVSSLGSGLPPPGMPPPGSFPPPVPPPGALPPGIPPAMPPPPMPPGAAGHGPPSAGTPGAGHPGHGHSHPHPFPPGGMPHPGMSQMQLAHHGPHGLGHPHAGPPGSGGQPPPRPPPGMPHPGPPPMGMPPRGPPFGSPMGHPGPMPPHGMRGPPPLMPPHGYTGPPRPPPYGYQRGPLPPPRPTPRPPVPPRGPLRGPLPQ [SF3B4]	50.9 °C	51.3 °C	0.275	-2.15	-2.49	0.162
MAAGVEAAAEVAATEIKMEEESGAPGVPSGNGAPGPKGEGERPAQNEKRKEKNIKRGGNRFEPYANPTKRYRAFITNIPFDVKWQSLKDLVKEKVGEVTYVELLMDAEGKSRGCAVVEFKMEESMKKAAEVLNKHSLSGRPLKVKEDPDGEHARRAMQKVMATTGGMGMGPGGPGMITIPPSILNNPNIPNEIIHALQAGRLGSTVFVANLDYKVGWKKLKEVFSMAGVVVRADILEDKDGKSRGIGTVTFEQSIEAVQAISMFNGQLLFDRPMHVKMDERALPKGDFFPPERPQQLPHGLGGIGMGLGPGGQPIDANHLNKGIGMGNIGPAGMGMEGIGFGINKMGGMEGPFGGGMENMGRFGSGMNMGRINEILSNALKRGEIIAKQGGGGGGGSVPGIERMGPGIDRLGGAGMERMGAGLGHGMDRVGSEIERMGLVMDRMGSVERMGSGIERMGPLGLDHMASSIERMGQTMERIGSGVERMGAGMGFGLERMAAPIDRVGQTIERMGSGVERMGPAIERMGLSMERMVPAGMGAGLERMGPVMDRMATGLERMGANNLERMGLERMGANSLERMGLERMGANSLERMGPAMGPALGAGIERMGLAMGGGGGASFDRAIEMERGNFGGSFAGSFGGAGGHAPGVARKACQIFVRNLPFDFTWKMLKDKFNECGHVLYADIKMENGKSKGCGVVKFESPEVAERACRMMNGMKLSGREIDVRIDRNA [HNRNPM]	46.7 °C	47.3 °C	-0.172	6.88	13.2	0.236
MAAHLVKRCTCLLREAARQAPAMAPVGRLRLAWVAHKTLTSSATSPISHLPGSLMEPVEKERASTPYIEKQVDHLIKKATRPEELLELLGGSHDLDSNQAAMVLIRLSHLLSEKPEDKGLLIQDAHFHQLLCLLNSQIASVWHGTLSKLLGSLYALGIPKASKELQSVEQEVRWRMRKLKYKHLAFLAESCATLSQEQHSQELLAELLTHLERRWTEIEDSHTLVTVMMKVGHLSEPLMNRLEDKCLELVEHFGPNELRKVLVMLAAQSRRSVPLLRAISYHLVQKPFSLTKDVLLDVAYAYGKLSFHQTQVSQRLATDLLSLMPSLTSGEVAHCAKSFALLKWLSLPLFEAFAQHVLNRAQDITLPHLCSVLLAFARLNFHPDQEDQFFSLVHEKLGSELPGLEPALQVDLVWALCVLQQAREAELQAVLHPEFHIQFLGGKSQKDQNTFQKLLHINATALLEYPEYSGPLLPASAVAPGPSALDRKVTPLQKELQETLKGLLGSADKGSLEVATQYGWVLDAEVLLDSDGEFLPVRDFVAPHLAQPTGSQSPPPGSKRLAFLRWEFPNFNSRSKDLLGRFVLARRHIVAAGFLIVDVPFYEWLELKSEWQKGAYLKDKMRKAVAEELAK [TBRG4]	48.4 °C	48.2 °C	0.123	0.141	3.9	-0.127
MAAIGVHLGCTSACVAVYKDGRAGVVANDAGDRVTPAVVAYSENEEIVGLAAKQSRIRNISNTVMKVKQILGRSSSDPQAQKYIAESKCLVIEKNGKLRYEIDTGEETKFVNPEDVARLIFSKMKETAHSVLGSDANDVVITVPFDFGEKQKNALGEAARAAGFNVLRLIHEPSAALLAYGIGQDSPTGKSNILVFKLGGTSLSLSVMEVNSGIYRVLSTNTDDNIGGAHFTETLAQYLASEFQRSFKHDVRGNARAMMKLTNSAEVAKHSLSTLGSANCFLDSLYEGQDFDCNVSRARFELLCSPLFNKCIEAIRGLLDQNGFTADDINKVVLCGGSSRIPKLQQLIKDLFPAVELLNSIPPDEVIPIGAAIEAGILIGKENLLVEDSLMIECSARDILVKGVDESGASRFTVLFPSGTPLPARRQHTLQAPGSISSVCLELYESDGKNSAKEETKFAQVVLQDLDKKENGLRDILAVLTMKRDGSLHVTCTDQETGKCEAISIEIAS [HSPA14]	48.4 °C	48.4 °C	0.167	1.14	3.27	-0.0832
MAALAPVGSPASRGPRLAAGLRLLPMLGLLQLLAEPGLGRVHHLALKDDVRHKVHLNTFGFFKDGYMVVNVSSLSLNEPEDKDVTIGFSLDRTKNDGFSSYLDEDVNYCILKKQSVSVTLLILDISRSEVRVKSPPEAGTQLPKIIFSRDEKVLGQSQEPNVNPASAGNQTQKTQDGGKSKRSTVDSKAMGEKSFSVHNNGGAVSFQFFFNISTDDQEGLYSLYFHKCLGKELPSDKFTFSLDIEITEKNPDSYLSAGEIPLPKLYISMAFFFFLSGTIWIHILRKRRNDVFKIHWLMAALPFTKSLSLVFHAIDYHYISSQGFPIEGWAVVYYITHLLKGALLFITIALIGTGWAFIKHILSDKDKKIFMIVIPLQVLANVAYIIIESTEEGTTEYGLWKDSLFLVDLLCCGAILFPVVWSIRHLQEASATDGKGDSMGPLQQRANLRAGSRIESHHFAQADLELLASSCPPASVSQRAGITAAINLAKLKLFRHYYVLIVCYIYFTRIIAFLLKLAVPFQWKWLYQLLDETATLVFFVLTGYKFRPASDNPYLQLSQEEEDLEMESVVTTSGVMESMKKVKKVTNGSVEPQGEWEGAV [GPR107]	–	53.4 °C	-0.0201	0.348	-0.468	-0.385
MAALKSWLSRSVTSFFRYRQCLCVPVVANFKKRCFSELIRPWHKTVTIGFGVTLCAVPIAQKSEPHSLSSEALMRRAVSLVTDSTSTFLSQTTYALIEAITEYTKAVYTLTSLYRQYTSLLGKMNSEEEDEVWQVIIGARAEMTSKHQEYLKLETTWMTAVGLSEMAAEAAYQTGADQASITARNHIQLVKLQVEEVHQLSRKAETKLAEAQIEELRQKTQEEGEERAESEQEAYLRED [DIABLO]	54.9 °C	53.3 °C	-0.173	-0.685	-1.02	0.345
MAALVRPARFVVRPLLQVVQAWDLDARRWVRALRRSPVKVVFPSGEVVEQKRAPGKQPRKAPSEASAQEQREKQPLEESASRAPSTWEESGLRYDKAYPGDRRLSSVMTIVKSRPFREKQGKILLEGRRLISDALKAGAVPKMFFFSRLEYLKELPVDKLKGVSLIKVKFEDIKDWSDLVTPQGIMGIFAKPDHVKMTYPKTQLQHSLPLLLICDNLRDPGNLGTILRSAAGAGCSKVLLTKGCVDAWEPKVLRAGMGAHFRMPIINNLEWETVPNYLPPDTRVYVADNCGLYAQAEMSNKASDHGWVCDQRVMKFHKYEEEEDVETGASQDWLPHVEVQSYDSDWTEAPAAVVIGGETYGVSLESLQLAESTGGKRLLIPVVPGVDSLNSAMAASILLFEGKRQLRGRAEDLSRDRSYH [RNMTL1]	53.2 °C	52.1 °C	-0.452	-0.281	-1.34	0.163
MAAMRKALPRRLVGLASLRAVSTSSMGTLPKRVKIVEVGPRDGLQNEKNIVSTPVKIKLIDMLSEAGLSVIETTSFVSPKWVPQMGDHTEVLKGIQKFPGINYPVLTPNLKGFEAAVAAGAKEVVIFGAASELFTKKNINCSIEESFQRFDAILKAAQSANISVRGYVSCALGCPYEGKISPAKVAEVTKKFYSMGCYEISLGDTIGVGTPGIMKDMLSAVMQEVPLAALAVHCHDTYGQALANTLMALQMGVSVVDSSVAGLGGCPYAQGASGNLATEDLVYMLEGLGIHTGVNLQKLLEAGNFICQALNRKTSSKVAQATCKL [HMGCL]	54.1 °C	53.9 °C	0.536	0.275	0.372	-0.047
MAANKSKGQSSLALHKVIMVGSGGVGKSALTLQFMYDEFVEDYEPTKADSYRKKVVLDGEEVQIDILDTAGQEDYAAIRDNYFRSGEGFLLVFSITEHESFTATAEFREQILRVKAEEDKIPLLVVGNKSDLEERRQVPVEEARSKAEEWGVQYVETSAKTRANVDKVFFDLMREIRTKKMSENKDKNGKKSSKNKKSFKERCCLL [RALB]	57 °C	57.7 °C	0.046	-0.446	-2.23	0.0599
MAANMYRVGDYVYFENSSSNPYLIRRIEELNKTANGNVEAKVVCFYRRRDISSTLIALADKHATLSVCYKAGPGADNGEEGEIEEEMENPEMVDLPEKLKHQLRHRELFLSRQLESLPATHIRGKCSVTLLNETESLKSYLEREDFFFYSLVYDPQQKTLLADKGEIRVGNRYQADITDLLKEGEEDGRDQSRLETQVWEAHNPLTDKQIDQFLVVARSVGTFARALDCSSSVRQPSLHMSAAAASRDITLFHAMDTLHKNIYDISKAISALVPQGGPVLCRDEMEEWSASEANLFEEALEKYGKDFTDIQQDFLPWKSLTSIIEYYYMWKTTDRYVQQKRLKAAEAESKLKQVYIPNYNKPNPNQISVNNVKAGVVNGTGAPGQSPGAGRACESCYTTQSYQWYSWGPPNMQCRLCASCWTYWKKYGGLKMPTRLDGERPGPNRSNMSPHGLPARSSGSPKFAMKTRQAFYLHTTKLTRIARRLCREILRPWHAARHPYLPINSAAIKAECTARLPEASQSPLVLKQAVRKPLEAVLRYLETHPRPPKPDPVKSVSSVLSSLTPAKVAPVINNGSPTILGKRSYEQHNGVDGNMKKRLLMPSRGLANHGQARHMGPSRNLLLNGKSYPTKVRLIRGGSLPPVKRRRMNWIDAPDDVFYMATEETRKIRKLLSSSETKRAARRPYKPIALRQSQALPPRPPPPAPVNDEPIVIED [MTA1]	49.1 °C	50.3 °C	-0.0863	1.08	2.79	-0.00553
MAANMYRVGDYVYFENSSSNPYLIRRIEELNKTASGNVEAKVVCFYRRRDISNTLIMLADKHAKEIEEESETTVEADLTDKQKHQLKHRELFLSRQYESLPATHIRGKCSVALLNETESVLSYLDKEDTFFYSLVYDPSLKTLLADKGEIRVGPRYQADIPEMLLEGESDEREQSKLEVKVWDPNSPLTDRQIDQFLVVARAVGTFARALDCSSSVRQPSLHMSAAAASRDITLFHAMDTLYRHSYDLSSAISVLVPLGGPVLCRDEMEEWSASEASLFEEALEKYGKDFNDIRQDFLPWKSLTSIIEYYYMWKTTDRYVQQKRLKAAEAESKLKQVYIPTYSKPNPNQISTSNGKPGAVNGAVGTTFQPQNPLLGRACESCYATQSHQWYSWGPPNMQCRLCAICWLYWKKYGGLKMPTQSEEEKLSPSPTTEDPRVRSHVSRQAMQGMPVRNTGSPKSAVKTRQAFFLHTTYFTKFARQVCKNTLRLRQAARRPFVAINYAAIRAEYADRHAELSGSPLKSKSTRKPLACIIGYLEIHPAKKPNVIRSTPSLQTPTTKRMLTTPNHTSLSILGKRNYSHHNGLDELTCCVSD [MTA3]	49.3 °C	49.7 °C	-0.0389	0.944	4.09	-0.00121
